The target in one assay is T1, IL-4R (UniProt P24394 26-232, limits assumed).
T1 construct: also called second target
As to the kind of experiment: ELISA on coated IL-4R. On the procedure: The plates were washed 3× times in 0.05% PBST (150 μL/well) and then blocked with Casein in 0.05% PBST (200 μL/well) for 2 hours at RT. The plates were washed 3× times in 0.05% PBST, and 100 μL of titrated test articles in 0.05% PBST were added to the wells of the plate (starting 100 nM, 1:3 dilutions, 11-point titration) and incubated at 4° C. for 1 hour. […] Plates were then washed again before addition of TMB substrate (100 μL/well) that was allowed to reach RT before addition to the plate. The HRP-TMB reaction was allowed to develop for approximately 10 minutes, then TMB stop buffer was added (100 μL/well) and the absorbance was measured at 450 nm on a plate reader with absorbance at 650 nm subtracted (Molecular Devices). The data were plotted and analyzed using GraphPad Prism analysis software.

For assay [1], the target named is Murine serum albumin (mouse). In words: ELISA, albumin coated, monomeric sdAb titrated.
Chain of Murine serum albumin (mouse) (chain, as listed by the source): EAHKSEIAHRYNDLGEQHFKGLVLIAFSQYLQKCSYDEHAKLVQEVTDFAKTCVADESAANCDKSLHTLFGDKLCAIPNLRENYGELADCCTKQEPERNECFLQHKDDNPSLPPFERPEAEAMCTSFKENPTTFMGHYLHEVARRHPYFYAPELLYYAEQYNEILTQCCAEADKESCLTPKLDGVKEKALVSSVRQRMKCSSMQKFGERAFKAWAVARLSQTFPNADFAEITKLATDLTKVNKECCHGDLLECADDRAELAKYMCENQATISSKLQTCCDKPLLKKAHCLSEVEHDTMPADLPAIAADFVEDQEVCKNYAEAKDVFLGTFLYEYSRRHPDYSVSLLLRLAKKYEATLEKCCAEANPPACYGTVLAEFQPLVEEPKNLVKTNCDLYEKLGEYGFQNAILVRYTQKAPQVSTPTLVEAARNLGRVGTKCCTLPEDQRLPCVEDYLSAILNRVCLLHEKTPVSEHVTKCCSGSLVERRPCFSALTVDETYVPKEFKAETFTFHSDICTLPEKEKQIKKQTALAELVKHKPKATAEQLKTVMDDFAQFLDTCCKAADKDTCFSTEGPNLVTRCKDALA
Assay [2] deals with Human serum albumin (human). In words: ELISA, albumin coated, monomeric sdAb titrated. In general terms: In an ELISA, binding on a coated surface is turned into a signal by an enzyme label.
Assay [3] has as its target T2, Cynomolgus monkey serum albumin (cynomolgus monkey).
T2 chain: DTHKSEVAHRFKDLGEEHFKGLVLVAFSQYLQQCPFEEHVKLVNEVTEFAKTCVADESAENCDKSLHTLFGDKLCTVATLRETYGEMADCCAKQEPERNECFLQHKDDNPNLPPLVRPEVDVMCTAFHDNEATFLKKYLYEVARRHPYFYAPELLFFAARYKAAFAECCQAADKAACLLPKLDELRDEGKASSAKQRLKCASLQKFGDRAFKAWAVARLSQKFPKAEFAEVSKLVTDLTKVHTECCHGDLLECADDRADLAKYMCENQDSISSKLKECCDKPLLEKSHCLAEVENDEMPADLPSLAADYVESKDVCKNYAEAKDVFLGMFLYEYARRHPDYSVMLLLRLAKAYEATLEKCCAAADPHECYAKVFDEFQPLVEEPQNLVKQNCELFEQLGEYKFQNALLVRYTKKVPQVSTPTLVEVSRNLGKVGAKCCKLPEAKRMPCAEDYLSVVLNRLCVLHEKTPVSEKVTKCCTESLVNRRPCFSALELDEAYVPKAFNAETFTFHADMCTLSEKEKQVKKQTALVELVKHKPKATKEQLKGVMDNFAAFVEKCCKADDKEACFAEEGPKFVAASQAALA
As to the kind of experiment: ELISA, albumin coated, monomeric sdAb titrated.

The target in assay [4] is T3, Rat serum albumin (rat).
T3 chain: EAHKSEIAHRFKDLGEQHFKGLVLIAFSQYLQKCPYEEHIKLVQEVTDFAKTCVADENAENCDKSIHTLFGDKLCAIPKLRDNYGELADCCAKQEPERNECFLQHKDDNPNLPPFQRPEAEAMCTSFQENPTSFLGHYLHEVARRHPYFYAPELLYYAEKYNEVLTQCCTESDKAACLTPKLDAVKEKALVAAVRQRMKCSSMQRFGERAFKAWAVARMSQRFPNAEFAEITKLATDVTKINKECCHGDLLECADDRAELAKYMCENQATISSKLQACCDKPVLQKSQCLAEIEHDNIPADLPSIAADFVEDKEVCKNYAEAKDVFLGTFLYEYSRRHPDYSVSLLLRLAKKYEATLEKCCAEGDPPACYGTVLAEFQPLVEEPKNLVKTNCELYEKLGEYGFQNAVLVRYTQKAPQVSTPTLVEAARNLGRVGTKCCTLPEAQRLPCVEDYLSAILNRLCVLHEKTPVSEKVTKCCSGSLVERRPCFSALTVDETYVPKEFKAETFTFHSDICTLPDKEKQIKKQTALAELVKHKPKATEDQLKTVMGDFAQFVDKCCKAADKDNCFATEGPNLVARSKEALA
As to the kind of experiment: ELISA, albumin coated, monomeric sdAb titrated.

In assay [5] the target is Murine serum albumin (mouse). In words: ELISA on coated recombinant albumin, pH 7.4, anti-human IgG1 HRP; apparent affinity.
The target of assay [6] is Human serum albumin (human). The description is as above.
Assay [7] deals with T2, Cynomolgus monkey serum albumin. Described as above.
Assay [8] deals with T3, Rat serum albumin. The assay is described as above.

B1: cx12583 (VHH)
chain: GGGGDKTHTCPPCPAPGGPSVFLFPPKPKDTLMISRTPEVTCVVVDVSHEDPEVKFNWYVDGVEVHNAKTKPREEQYNSTYRVVSVLTVLHQDWLNGKEYKCKVSNKALPAPIEKTISKAKGQPREPQVYTLPPSRDELTKNQVSLTCLVKGFYPSDIAVEWESNGQPENNYKTTPPVLDSDGSFFLYSKLTVDKSRWQQGNVFSCSVMHEALHNHYTQKSLSLSPGSGGGSEVQLVESGGGEVQPGGSLRLSCAASGFTFSTSGMVWVRQAPGKGLEWVSTISDDARITVYAESVKGRFTISRDNAKNTVYLQMNSLRAEDTAVYYCATYRAGSRIGSYEDYYRGQGTLVTVKP
notes: Homodimer; also called Fc Region-GS6-VHH
Turning to B1, in the assay with IL-4R, the binding result is reported as “no binding (tested: 100 nM (top of titration))”.

B2: cx5009, hz4A01v51 VHH-hIgG1-xELL-NNT-Fc (VHH)
VHH: EVQLVESGGGEVQPGGSLRLSCAASGFTFSTSGMVWVRQAPGKGLEWVSTISDDARITVYAESVKGRFTISRDNAKNTVYLQMNSLRAEDTAVYYCATYRAGSRIGSYEDYYRGQGTLVTVKP
notes: also called Hz4A01v51-NNT-hFc; 4A01v51-NNT-hFc
Consider B2, for which the Kd with Murine serum albumin [1] was under 0.3 nM; in the assay with Human serum albumin [2] it was under 0.3 nM; in assay [3], under 0.3 nM; with Rat serum albumin [4], under 0.3 nM; in the assay with Murine serum albumin [5], about 0.2 nM; with Human serum albumin [6], about 0.2 nM. The Kd (in [7]; with Rat serum albumin [8]) was about 0.2 nM in each case. For the same molecule, the maximal binding (with Murine serum albumin [1]; with Human serum albumin [2]; in assay [3]; with Rat serum albumin [4]) was over 90% in each case.

B3: cx12584 (VHH)
chain: GGGGDKTHTCPPCPAPGGPSVFLFPPKPKDTLMISRTPEVTCVVVDVSHEDPEVKFNWYVDGVEVHNAKTKPREEQYNSTYRVVSVLTVLHQDWLNGKEYKCKVSNKALPAPIEKTISKAKGQPREPQVYTLPPSRDELTKNQVSLTCLVKGFYPSDIAVEWESNGQPENNYKTTPPVLDSDGSFFLYSKLTVDKSRWQQGNVFSCSVMHEALHNHYTQKSLSLSPGGGSGGGSGGGSEVQLVESGGGEVQPGGSLRLSCAASGFTFSTSGMVWVRQAPGKGLEWVSTISDDARITVYAESVKGRFTISRDNAKNTVYLQMNSLRAEDTAVYYCATYRAGSRIGSYEDYYRGQGTLVTVKP
notes: Homodimer; also called Fc Region-GS12-VHH
On to B3, for which, in the assay with IL-4R, the binding result was “no binding (tested: 100 nM (top of titration))”.

For the origin of these results see patent US20250277018A1 (INHIBRX BIOSCIENCES, published 2025).
